From publication PMC4916508, “Structural insights of a hormone sensitive lipase homologue Est22” (Scientific Reports, 2016)

Key:
[1] = target: Est22 (wild type) (bacterial, deep-sea sediment metagenomic library); test: SEC-MALS; 20 ul of 1 mg/ml Est22 on a wtc030s5 column (Wyatt), 20 mM Tris-HCl, 100 mM NaCl, pH 7.4
[2] = target: Est22 (wild type) (bacterial, deep-sea sediment metagenomic library); test: SEC; gel filtration profiles of wild type and mutants, Superdex 200 16/600 (panel C); column of panel E not given
[3] = target: Est22 S188A (bacterial, deep-sea sediment metagenomic library); test: as above
[4] = target: Est22 S188A/D287A (bacterial, deep-sea sediment metagenomic library); test: as above
[5] = target: Est22 S188A/H317A (bacterial, deep-sea sediment metagenomic library); test: as above
purified protein = substrate: CC(=O)Oc1ccc([N+](=O)[O-])cc1; test: purified protein; assay type: biochemical, uncultured bacterium; settings: 100 mM Tris-HCl, pH 7.5, 40 °C
[6] = target: the molecule itself; test: SEC; gel filtration profiles of wild type and mutants, Superdex 200 16/600 (panel C); column of panel E not given

Molecule Est22 (wild type) (enzyme) has a stoichiometry N [1] of 2 and a stoichiometry N [2] of 2.

Est22 S188A (enzyme) gave a stoichiometry N [3] of 2.

Molecule Est22 S188A/D287A (enzyme) has a stoichiometry N [4] of 2.

With Est22 S188A/H317A (enzyme) the stoichiometry N [5] was 2.

B1: Est22 (uncultured bacterium) (protein)
chain: MTNKIAEDPRIDPRIKAIFSGMDLGGGGDVESREAMLEAASSEEATAVRDGLRVFLDACDNEEIAPSAGLKIEDYEFTSEPDGNIAKIQYIRPDSTDKLPCVYYIHGGGMQSLSCYYGNYRAWGKIIASNGVAVAMVEFRNALVPSALPEVAPYPAGLNDCVSGVKWVASHADELGIDASRIIIAGESGGGNLTLAAGLRLKQEGSQDLIQGLYALCPYIAGSWPSEDSPSSTENNGILLDLHNNQGAMGYGIEAYEMRDPLAWPGFATEEDVSGLVPTFISVNECDPLRDEGINFYRLLLRAGVSAKCRQVMGTIHGTEIFPIACPDVSRDTAASIANFCKGG
notes: full length 1-344 aa, N-terminal 6xHis tag (pET28b), E. coli Rosetta (DE3)
B1 gave a Km (purified protein) of 489.9 µM and a kcat (purified protein) of 3160 s⁻¹.

B2: Est22 S170A (enzyme)
chain: MGSSHHHHHHHSSGLVPRGSHMTNKIAEDPRIDPRIKAIFSGMDLGGGGDVESREAMLEAASSEEATAVRDGLRVFLDACDNEEIAPSAGLKIEDYEFTSEPDGNIAKIQYIRPDSTDKLPCVYYIHGGGMQSLSCYYGNYRAWGKIIASNGVAVAMVEFRNALVPSALPEVAPYPAGLNDCVSGVKWVAAHADELGIDASRIIIAGESGGGNLTLAAGLRLKQEGSQDLIQGLYALCPYIAGSWPSEDSPSSTENNGILLDLHNNQGAMGYGIEAYEMRDPLAWPGFATEEDVSGLVPTFISVNECDPLRDEGINFYRLLLRAGVSAKCRQVMGTIHGTEIFPIACPDVSRDTAASIANFCKGG
With B2 the “stoichiometry N” value [6] was 2.
